Assays:
cell death = conditions: known activity; cited from earlier work
[1] = Channel forming activity of peptide in planar lipid bilayers which lack BCL-2 related proteins; type: biochemical; conditions: bilayers lacking BCL-2 related proteins
Bcl-2 channel = target: T1, Bcl-2 channel (Mus musculus, UniProt P10417); assay: Effect of Bax death agonist peptide on Bcl-2 channel in planar lipid bilayer; type: biochemical, murine; conditions: for effect on conductance pattern of Bcl-2 channel: 20 to 100 μM; for effect on ion selectivity of Bcl-2 channel: peptide added to Bcl-2 channel
T1 construct: proteoliposomes fused to planar lipid bilayer
Description: The Bax and Bcl-2 polypeptides used in the ion channel studies reported herein were recombinant murine Bcl-2 and Bax polypeptides lacking the C-terminal signal-anchor membrane targeting sequence (Bcl-2ΔC21, amino acids 1-218 of SEQ ID NO:9 and BaxΔC19, amino acids 1-173 of SEQ ID NO:6). These deletion derivatives, also referred to herein as BaxΔTM and Bcl-2ΔTM, were used to avoid any interference of the C-terminal signal-anchor membrane targeting sequence with the capacity of internal α helices to mediate insertion into artificial lipid bilayers.
Proteoliposomes for fusion with a planar lipid bilayer were prepared as follows. Purified protein (0.25 μg) was added to […] lipid (Azolectin) in 20 μl of KCl buffer (150 mM KCl, 10 mM HEPES, pH 7.0). This mixture was placed into a dialysis bag with a molecular weight cutoff of 12 KDa. After 16 hours dialysis in 3000 volumes of 150 mM KCl (10 mM HEPES, pH 7.0) the proteoliposome suspension was removed and placed on ice for immediate use. The bilayer was set up with a 450:150 cis to trans KCl gradient to identify the ion selectivity of the initial currents. Fusion was initiated by adding 5-20 μl of lipid vesicles (only 5-20 ng of protein) to the cis bilayer chamber with mixing. Non-fused proteoliposomes were removed from the compartments and solutions exchanged as described above.
Control bilayers containing Bcl-2 or Bax channels were prepared by fusion of unilamellar proteoliposomes with incorporated Bcl-2ΔTM or BaxΔTM with an established planar bilayer as described in Example 4. Test bilayers containing Bcl-2 channels were prepared in the same manner to which an 11 mer Bax peptide (SEQ ID NO:1) with known death agonist activity was added at 20, 50 or 100 μM. A voltage of 80 mV was applied to each control and test channel and its conductance measured for a period of 12 to 16 seconds and the frequency that each channel was measured at a particular conductance level (pA) was calculated. The data, representing about 500,000 measurements, are shown as histograms in FIGS. 8A-8E.
Bilayers containing Bcl-2 and Bax channels were prepared as described in Example 4 with 150 mM KCl on both sides of the bilayer. The death agonist peptide was added to the cis side of a Bcl-2 channel at 150 μM. The voltage dependence of the currents and the ion selectivity for the Bcl-2 channel in the absence and presence of the death agonist peptide, as well as the Bax channel were determined and the data are shown in FIGS. 9A-C.

Bax channel = assay: Effect of Bax 11-mer peptide on Bax channel in planar lipid bilayer; type: biochemical, murine; conditions: 20 to 100 μM

T1 sequence (P10417 1-218): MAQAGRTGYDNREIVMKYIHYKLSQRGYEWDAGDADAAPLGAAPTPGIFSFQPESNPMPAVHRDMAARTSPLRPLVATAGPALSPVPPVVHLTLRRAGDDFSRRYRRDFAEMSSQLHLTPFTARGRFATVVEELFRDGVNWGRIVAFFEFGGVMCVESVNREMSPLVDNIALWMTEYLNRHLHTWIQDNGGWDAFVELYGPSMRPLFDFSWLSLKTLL

ECLKRIGDELD [Bax 11mer peptide]
cell death induction (known) (cell death): known to induce cell death | channel forming activity [1]: no channel forming activity | single remaining conductance peak of Bcl-2 channel (Bcl-2 channel; 100 μM peptide, 80 mV): about 65 pA | pK/pCl of Bcl-2 channel with peptide (Bcl-2 channel; 150 μM peptide, cis side): 0.26±0.05 | slope of Bcl-2 channel current at negative potentials (Bcl-2 channel; 150 μM peptide, symmetrical 150 mM KCl): linear and intermediate between that of Bcl-2 and Bax alone | effect on rectification of Bcl-2 channel (Bcl-2 channel; 150 μM peptide, symmetrical 150 mM KCl, listed as death agonist peptide): imparted rectification | effect on conductance pattern of Bcl-2 channel (Bcl-2 channel): a simpler single channel conductance pattern | effect on conductance pattern of Bcl-2 channel (Bcl-2 channel; listed as 11 mer Bax peptide): changes its characteristic conductance pattern in a progressive manner | effect on ion selectivity of Bcl-2 channel (Bcl-2 channel): Cl^- selectivity | effect on ion selectivity of Bcl-2 channel (Bcl-2 channel; listed as death agonist peptide): reversed the ion selectivity of the Bcl-2 channel | effect on activity of Bax channels (Bax channel): not affected
